Data from the supplement of paper PMC9112550, “Optimization of the antimicrobial peptide Bac7 by deep mutational scanning” (BMC Biology, 2022).

Test system: Escherichia coli TOP10
Assay: shrunken log2 fold change of peptide-encoding DNA abundance (4.5 h post-induction vs induction); higher = less antimicrobial activity (less host growth inhibition)
Details: time post-induction: 4.5 h; library: site-saturation at positions 5, 18, 19, 20
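Further: peptides expressed intracellularly from a pBAD plasmid library in pooled LB shake-flask culture, induced with 0.3% L-arabinose, DNA abundance read by NGS, three biological replicates, DESeq2 with apeglm shrinkage.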

RRIRDRPPRLPRPRPRPPIYPRP
shrunken log2 fold change: -0.242

RRIRPRPPRLPRPRPRPYHIPRP
shrunken log2 fold change: -0.672

RRIRRRPPRLPRPRPRPRCLPRP
shrunken log2 fold change: 0.219

RRIRSRPPRLPRPRPRPPAPPRP
shrunken log2 fold change: 0.906

RRIRPRPPRLPRPRPRPRKRPRP
shrunken log2 fold change: 0.198

RRIRFRPPRLPRPRPRPAFSPRP
shrunken log2 fold change: 0.049

RRIRWRPPRLPRPRPRPLCKPRP
shrunken log2 fold change: 0.116

RRIRYRPPRLPRPRPRPIIRPRP
shrunken log2 fold change: -0.2

RRIRTRPPRLPRPRPRPNEIPRP
shrunken log2 fold change: -0.128

RRIRQRPPRLPRPRPRPEYYPRP
shrunken log2 fold change: -0.306

RRIRMRPPRLPRPRPRPHGVPRP
shrunken log2 fold change: 0.023

RRIRQRPPRLPRPRPRPWWKPRP
shrunken log2 fold change: -0.00542

RRIRGRPPRLPRPRPRPFILPRP
shrunken log2 fold change: -0.196

RRIRGRPPRLPRPRPRPPKYPRP
shrunken log2 fold change: 0.0508

RRIRIRPPRLPRPRPRPYLIPRP
shrunken log2 fold change: -1.6

RRIRSRPPRLPRPRPRPKRLPRP
shrunken log2 fold change: 0.297

RRIRTRPPRLPRPRPRPICDPRP
shrunken log2 fold change: -0.168

RRIRERPPRLPRPRPRPPWFPRP
shrunken log2 fold change: 0.0508

RRIRRRPPRLPRPRPRPEPVPRP
shrunken log2 fold change: 0.367

RRIRERPPRLPRPRPRPPDIPRP
shrunken log2 fold change: -0.225

RRIRKRPPRLPRPRPRPRVVPRP
shrunken log2 fold change: 0.143

RRIRNRPPRLPRPRPRPLHKPRP
shrunken log2 fold change: -0.101

RRIRARPPRLPRPRPRPNMGPRP
shrunken log2 fold change: 0.137

RRIRMRPPRLPRPRPRPTAKPRP
shrunken log2 fold change: 0.255

RRIRGRPPRLPRPRPRPMVTPRP
shrunken log2 fold change: 1.29

RRIRIRPPRLPRPRPRPPCPPRP
shrunken log2 fold change: -0.141

RRIRVRPPRLPRPRPRPLALPRP
shrunken log2 fold change: -0.181

RRIRARPPRLPRPRPRPPVSPRP
shrunken log2 fold change: 0.554

RRIRDRPPRLPRPRPRPNIWPRP
shrunken log2 fold change: 0.306

RRIRLRPPRLPRPRPRPMSMPRP
shrunken log2 fold change: 0.125

RRIRHRPPRLPRPRPRPIFSPRP
shrunken log2 fold change: -0.176

RRIRPRPPRLPRPRPRPKNLPRP
shrunken log2 fold change: -0.0674

RRIRLRPPRLPRPRPRPPLPPRP
shrunken log2 fold change: 0.502

RRIRIRPPRLPRPRPRPVRHPRP
shrunken log2 fold change: -0.0859

RRIRMRPPRLPRPRPRPYYLPRP
shrunken log2 fold change: -0.326

RRIRKRPPRLPRPRPRPYYQPRP
shrunken log2 fold change: -0.194

RRIRFRPPRLPRPRPRPHQKPRP
shrunken log2 fold change: -0.0745

RRIRSRPPRLPRPRPRPVMGPRP
shrunken log2 fold change: -0.0522

RRIRLRPPRLPRPRPRPFKHPRP
shrunken log2 fold change: -0.156

RRIRYRPPRLPRPRPRPIQAPRP
shrunken log2 fold change: 0.107

RRIRARPPRLPRPRPRPGCNPRP
shrunken log2 fold change: 0.252

RRIRHRPPRLPRPRPRPYMPPRP
shrunken log2 fold change: -0.402

RRIRARPPRLPRPRPRPVWTPRP
shrunken log2 fold change: 0.527

RRIRLRPPRLPRPRPRPSLSPRP
shrunken log2 fold change: -0.305

RRIRWRPPRLPRPRPRPIRCPRP
shrunken log2 fold change: 0.0257

RRIRQRPPRLPRPRPRPVIKPRP
shrunken log2 fold change: -0.772

RRIRSRPPRLPRPRPRPMQYPRP
shrunken log2 fold change: -0.289

RRIRMRPPRLPRPRPRPIYRPRP
shrunken log2 fold change: -0.0679

RRIRFRPPRLPRPRPRPHKHPRP
shrunken log2 fold change: -0.579

RRIRMRPPRLPRPRPRPASQPRP
shrunken log2 fold change: 0.174

RRIRDRPPRLPRPRPRPIQIPRP
shrunken log2 fold change: -0.384

RRIRYRPPRLPRPRPRPFKTPRP
shrunken log2 fold change: -0.398

RRIRSRPPRLPRPRPRPCICPRP
shrunken log2 fold change: -0.209

RRIRSRPPRLPRPRPRPGAPPRP
shrunken log2 fold change: 0.613

RRIRARPPRLPRPRPRPFSWPRP
shrunken log2 fold change: -0.0923

RRIRFRPPRLPRPRPRPCMRPRP
shrunken log2 fold change: 0.0466

RRIRPRPPRLPRPRPRPYWGPRP
shrunken log2 fold change: -0.201

RRIRHRPPRLPRPRPRPQLHPRP
shrunken log2 fold change: -0.169

RRIRYRPPRLPRPRPRPAPKPRP
shrunken log2 fold change: 0.207

RRIRSRPPRLPRPRPRPYGIPRP
shrunken log2 fold change: 0.104

RRIRSRPPRLPRPRPRPFNGPRP
shrunken log2 fold change: -0.0626

RRIRMRPPRLPRPRPRPKKHPRP
shrunken log2 fold change: 0.405

RRIRFRPPRLPRPRPRPSGDPRP
shrunken log2 fold change: -0.202

RRIRSRPPRLPRPRPRPFAPPRP
shrunken log2 fold change: 0.314

RRIRPRPPRLPRPRPRPRGRPRP
shrunken log2 fold change: 0.713

RRIRNRPPRLPRPRPRPADFPRP
shrunken log2 fold change: 0.0143

RRIRERPPRLPRPRPRPYIWPRP
shrunken log2 fold change: 0.0553

RRIRLRPPRLPRPRPRPGYDPRP
shrunken log2 fold change: -0.233

RRIRWRPPRLPRPRPRPIMTPRP
shrunken log2 fold change: -0.00859

RRIRPRPPRLPRPRPRPSYMPRP
shrunken log2 fold change: -0.962

RRIRCRPPRLPRPRPRPGDWPRP
shrunken log2 fold change: 0.377

RRIRGRPPRLPRPRPRPHGPPRP
shrunken log2 fold change: 0.426

RRIRVRPPRLPRPRPRPGVVPRP
shrunken log2 fold change: 0.43

RRIRTRPPRLPRPRPRPVLTPRP
shrunken log2 fold change: 1.21

RRIRARPPRLPRPRPRPAIMPRP
shrunken log2 fold change: 0.161

RRIRLRPPRLPRPRPRPWRWPRP
shrunken log2 fold change: 0.0385

RRIRLRPPRLPRPRPRPVCDPRP
shrunken log2 fold change: -0.0188

RRIRIRPPRLPRPRPRPLDIPRP
shrunken log2 fold change: -0.216

RRIRLRPPRLPRPRPRPWMQPRP
shrunken log2 fold change: 0.0547

RRIRHRPPRLPRPRPRPRGEPRP
shrunken log2 fold change: -0.0677

RRIRERPPRLPRPRPRPDQLPRP
shrunken log2 fold change: -0.248

RRIRGRPPRLPRPRPRPEITPRP
shrunken log2 fold change: 0.542

RRIRDRPPRLPRPRPRPTKAPRP
shrunken log2 fold change: 0.000414

RRIRARPPRLPRPRPRPHVKPRP
shrunken log2 fold change: -0.289

RRIRRRPPRLPRPRPRPACNPRP
shrunken log2 fold change: 0.654

RRIRTRPPRLPRPRPRPFVVPRP
shrunken log2 fold change: -0.266

RRIRRRPPRLPRPRPRPTITPRP
shrunken log2 fold change: 0.0541

RRIRDRPPRLPRPRPRPWCSPRP
shrunken log2 fold change: -0.348

RRIRPRPPRLPRPRPRPEEPPRP
shrunken log2 fold change: 0.437

RRIRHRPPRLPRPRPRPSCVPRP
shrunken log2 fold change: -0.308

RRIRMRPPRLPRPRPRPYTHPRP
shrunken log2 fold change: -0.174

RRIRSRPPRLPRPRPRPKNGPRP
shrunken log2 fold change: -0.105

RRIRSRPPRLPRPRPRPQNTPRP
shrunken log2 fold change: -0.522

RRIRIRPPRLPRPRPRPMSTPRP
shrunken log2 fold change: -0.211

RRIRPRPPRLPRPRPRPNVDPRP
shrunken log2 fold change: -0.0229

RRIRMRPPRLPRPRPRPTFCPRP
shrunken log2 fold change: 0.282

RRIRPRPPRLPRPRPRPVHDPRP
shrunken log2 fold change: -0.115

RRIRERPPRLPRPRPRPQRDPRP
shrunken log2 fold change: 0.0296

RRIRVRPPRLPRPRPRPCVFPRP
shrunken log2 fold change: -0.00495

RRIRERPPRLPRPRPRPMLSPRP
shrunken log2 fold change: -0.376

RRIRGRPPRLPRPRPRPEHGPRP
shrunken log2 fold change: 0.602

RRIRRRPPRLPRPRPRPLWNPRP
shrunken log2 fold change: 0.117

RRIRDRPPRLPRPRPRPKEHPRP
shrunken log2 fold change: 0.0267

RRIRARPPRLPRPRPRPYFCPRP
shrunken log2 fold change: -0.346

RRIRARPPRLPRPRPRPRIMPRP
shrunken log2 fold change: 0.121

RRIRRRPPRLPRPRPRPEYQPRP
shrunken log2 fold change: 0.119

RRIRCRPPRLPRPRPRPLVDPRP
shrunken log2 fold change: 1.58

RRIRWRPPRLPRPRPRPWQPPRP
shrunken log2 fold change: -0.0542

RRIRQRPPRLPRPRPRPGDWPRP
shrunken log2 fold change: 0.866

RRIRYRPPRLPRPRPRPLGTPRP
shrunken log2 fold change: -0.227

RRIRTRPPRLPRPRPRPYATPRP
shrunken log2 fold change: -0.178

RRIRVRPPRLPRPRPRPDPDPRP
shrunken log2 fold change: -0.0209

RRIRGRPPRLPRPRPRPHYPPRP
shrunken log2 fold change: -0.222

RRIRDRPPRLPRPRPRPAAEPRP
shrunken log2 fold change: 1.25

RRIRVRPPRLPRPRPRPTRHPRP
shrunken log2 fold change: 0.156

RRIRTRPPRLPRPRPRPCRPPRP
shrunken log2 fold change: -0.415

RRIRRRPPRLPRPRPRPLYFPRP
shrunken log2 fold change: -0.115

RRIRDRPPRLPRPRPRPEKLPRP
shrunken log2 fold change: 0.19

RRIRMRPPRLPRPRPRPKNPPRP
shrunken log2 fold change: 0.145

RRIRGRPPRLPRPRPRPAWAPRP
shrunken log2 fold change: 0.854

RRIRPRPPRLPRPRPRPRSPPRP
shrunken log2 fold change: 0.592

RRIRLRPPRLPRPRPRPVYRPRP
shrunken log2 fold change: -0.548

RRIRIRPPRLPRPRPRPSMLPRP
shrunken log2 fold change: -0.422

RRIRDRPPRLPRPRPRPTRIPRP
shrunken log2 fold change: 0.0348

RRIRVRPPRLPRPRPRPVEAPRP
shrunken log2 fold change: 0.0669

RRIRMRPPRLPRPRPRPKALPRP
shrunken log2 fold change: 0.025

RRIRGRPPRLPRPRPRPDHVPRP
shrunken log2 fold change: 0.0598

RRIRYRPPRLPRPRPRPTCIPRP
shrunken log2 fold change: -0.257

RRIRDRPPRLPRPRPRPGENPRP
shrunken log2 fold change: -0.00211

RRIRIRPPRLPRPRPRPTCWPRP
shrunken log2 fold change: 0.151

RRIRARPPRLPRPRPRPELWPRP
shrunken log2 fold change: 1.3

RRIRQRPPRLPRPRPRPQVTPRP
shrunken log2 fold change: -0.00931

RRIRIRPPRLPRPRPRPMNMPRP
shrunken log2 fold change: -0.375

RRIRNRPPRLPRPRPRPTANPRP
shrunken log2 fold change: 0.0124

RRIRGRPPRLPRPRPRPIFCPRP
shrunken log2 fold change: 0.333

RRIRARPPRLPRPRPRPRWPPRP
shrunken log2 fold change: 0.666

RRIRMRPPRLPRPRPRPGPDPRP
shrunken log2 fold change: 0.768

RRIRLRPPRLPRPRPRPWCLPRP
shrunken log2 fold change: -0.317

RRIRTRPPRLPRPRPRPCMPPRP
shrunken log2 fold change: -0.143

RRIRLRPPRLPRPRPRPIMSPRP
shrunken log2 fold change: -0.2

RRIRTRPPRLPRPRPRPNNRPRP
shrunken log2 fold change: -0.754

RRIRHRPPRLPRPRPRPAMEPRP
shrunken log2 fold change: 0.0691

RRIRERPPRLPRPRPRPICVPRP
shrunken log2 fold change: -0.301

RRIRFRPPRLPRPRPRPFDEPRP
shrunken log2 fold change: -0.983

RRIRWRPPRLPRPRPRPSLQPRP
shrunken log2 fold change: 0.0895

RRIRKRPPRLPRPRPRPRSCPRP
shrunken log2 fold change: 0.239

RRIRTRPPRLPRPRPRPQHWPRP
shrunken log2 fold change: 0.08

RRIRNRPPRLPRPRPRPEEDPRP
shrunken log2 fold change: 0.659

RRIRKRPPRLPRPRPRPCINPRP
shrunken log2 fold change: -0.162

RRIRKRPPRLPRPRPRPYSWPRP
shrunken log2 fold change: 0.0046
